Laboratory results as given in PMC3151165 (2009).

T1: mu opioid receptor (Rattus norvegicus, UniProt P33535)
T1 chain: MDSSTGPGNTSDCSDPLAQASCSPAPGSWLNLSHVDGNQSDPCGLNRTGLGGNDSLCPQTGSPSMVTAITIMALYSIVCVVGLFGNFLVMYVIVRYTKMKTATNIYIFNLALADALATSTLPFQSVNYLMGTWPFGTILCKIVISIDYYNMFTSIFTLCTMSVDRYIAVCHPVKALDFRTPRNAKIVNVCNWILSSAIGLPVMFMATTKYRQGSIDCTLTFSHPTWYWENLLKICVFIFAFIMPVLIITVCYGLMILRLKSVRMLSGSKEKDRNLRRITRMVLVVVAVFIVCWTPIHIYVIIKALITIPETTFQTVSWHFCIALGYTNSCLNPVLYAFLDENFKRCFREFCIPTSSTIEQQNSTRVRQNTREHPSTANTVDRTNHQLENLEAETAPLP

T2: delta opioid receptor (Mus musculus, UniProt P32300)
T2 chain: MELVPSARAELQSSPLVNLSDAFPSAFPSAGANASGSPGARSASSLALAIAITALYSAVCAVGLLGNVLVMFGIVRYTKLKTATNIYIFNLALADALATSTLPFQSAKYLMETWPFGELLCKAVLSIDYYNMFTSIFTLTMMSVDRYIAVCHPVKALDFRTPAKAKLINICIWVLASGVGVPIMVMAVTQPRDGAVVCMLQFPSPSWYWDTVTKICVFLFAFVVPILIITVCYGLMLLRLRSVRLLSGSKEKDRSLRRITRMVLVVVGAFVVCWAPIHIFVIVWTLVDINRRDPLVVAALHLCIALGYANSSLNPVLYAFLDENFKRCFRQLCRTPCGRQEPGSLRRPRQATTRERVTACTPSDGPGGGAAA

B1: cyclo[D-Ala2(-CH=CH-)Ala5]Dyn A-(1-11)NH2 cis (3) (peptide)
chain: YAGFARRIRPK
modifications: D-Ala2, cis -CH=CH- bridge between residues 2 and 5 side chains, C-terminal amide

Target: T1, mu opioid receptor
Assay: radioligand competition
Binder YAGFARRIRPK (cis -CH=CH- bridge between Ala2 and Ala5 side chains, C-terminal amide) [cyclo[Ala2(-CH=CH-)Ala5]Dyn A-(1-11)NH2 cis (1)] has a Ki of 763 nM.
For YGGFARRARPK (trans -CH=CH- bridge between Ala5 and Ala8 side chains, C-terminal amide) [cyclo[Ala5(-CH=CH-)Ala8]Dyn A-(1-11)NH2 trans (6)], the Ki was 36 nM.
YGGFARRARPK (cis -CH=CH- bridge between Ala5 and Ala8 side chains, C-terminal amide) [cyclo[Ala5(-CH=CH-)Ala8]Dyn A-(1-11)NH2 cis (5)] was tested, and the Ki was 93 nM.
Work on B1 yielded a Ki of 2.33 nM.
YAGFARRIRPK (trans -CH=CH- bridge between Ala2 and Ala5 side chains, C-terminal amide) [cyclo[Ala2(-CH=CH-)Ala5]Dyn A-(1-11)NH2 trans (2)] was tested, and the Ki was 180 nM.

Target: T2, delta opioid receptor
Assay: radioligand competition
YAGFARRIRPK (cis -CH=CH- bridge between Ala2 and Ala5 side chains, C-terminal amide) [cyclo[Ala2(-CH=CH-)Ala5]Dyn A-(1-11)NH2 cis (1)] was tested, and the Ki was 7670 nM.
B1 showed a Ki of 9.3 nM.
YAGFARRIRPK (trans -CH=CH- bridge between Ala2 and Ala5 side chains, C-terminal amide) [cyclo[Ala2(-CH=CH-)Ala5]Dyn A-(1-11)NH2 trans (2)] gave a Ki of 1130 nM.
